Results reported in patent US9459207B2, “Method of characterizing interactions and screening for effectors” (Wyatt Technology Corporation, priority 2010, dated 2016).

Molecular target: chymotrypsin (Bos taurus, UniProt P00766)
Assay: Dynamic light scattering heteroassociation experiment (rh vs molar ratio of the two proteins, fitted)
Format: binding
Method: The method begins with sample preparation to be described presently. The DLS data are collected, and then analyzed in a four-step procedure. First, the concentrations of all components in a solution at a given time are calculated from postulated stoichiometries, association constant(s), Ka, and the known a priori concentrations of the stock solutions of the constituent molecule(s). […] Third, the modeled concentration data and modeled hydrodynamic radius data are combined to model the expected dynamic light scattering data at each sample ratio. Fourth, a best fit of the models to the collected DLS data is obtained. Thus, some or all parameters are adjusted to produce a best fit to the DLS data. Such fitting might be achieved using a least squares method, for example. These four steps of data analysis are discussed in detail in the following, and variations are possible, as would be apparent to one skilled in the art of DLS or particle associations.
In this example, to prepare the sample series for both self- and hetero-association, two stock solutions are mixed manually. For analysis of hetero-association, a high concentration, on the order of 0.5 mg/mL, solution of each pure molecule is prepared in the same solvent. For larger molecules, such as those greater than, say, 50 kDa, lower concentrations may be used. For analysis of self-association reactions, the molecular solution is prepared at the highest concentration to be tested; the second solution is the pure solvent in which the sample molecule was prepared. All solutions are filtered through a 0.02 μm filter.
For either type of analysis, aliquots of the two solution mixtures are dispensed into a 1536 well microtiter plate in a series of ratios from 100% A:0% B to 0% A:100% B, or some subset thereof, where the number of ratios prepared depends upon the desired detail of analysis. Typically, 10-20 ratios are used.
Following the dispensing of the sample, the microtiter plate is centrifuged at a rate and duration sufficient to remove any bubbles present in the samples; typically 1000 g for 15 seconds. Wells may then be covered to avoid evaporation, for example, by dispensing approximately 10 μL of paraffin oil into each well. The plate is then re-centrifuged prior to being placed into a dynamic light scattering instrument programmed, for example, to make 25 one-second dynamic light scattering measurements per well.
As an example of the inventive method, we consider two species A and B associating to form species AB with equilibrium association constant KAB: A+B ? AB. In this example we will use fitting procedure C, using the average hydrodynamic radius found by fitting the autocorrelation function measured for each sample to a cumulants model. We will assume that Equation (11) is valid. […]

binding to chymotrypsin (in words) (negative control, FIG. 5) | association constant (negative control, pH 6.7) | a value (association conformation parameter) (DLS fit, rAB={rA^a+rB^a}^1/a) | association constant (DLS fit, soybean trypsin inhibitor fitted with an incompetent fraction of chymotrypsin) | Molecule
no binding | 0 | – | – | lysozyme: protein, 14.4 kDa, negative control
– | – | 2.26 | 3.8e+06 M⁻¹ | soybean trypsin inhibitor: protein, molar mass of 22 kDa, binds chymotrypsin (protein, UniProt P01070 25-205, looked up) Trypsin inhibitor A: DFVLDNEGNPLENGGTYYILSDITAFGGIRAAPTGNERCPLTVVQSRNELDKGIGTIISSPYRIRFIAEGHPLSLKFDSFAVIMLCVGIPTEWSVVEDLPEGPAVKIGENKDAMDGWFRLERVSDDEFNNYKLVFCPQQAEDDKCGDIGISIDHDDGTRRLVVSKNKPLVVQFQKLDKESL
